This is an account of results in patent US6916624 (Genentech, dated 2005).

For assay [1], the target named is ErbB2 on human breast cancer cells (MDA-MB-175, SK-BR-3) (human) (UniProt P04626). The assay can be described thus: cell-based or functional assay.
Assay [2] addresses ErbB receptor(s) on MCF7 cells. Kind of assay: cell-based or functional assay.
For assay [3], the target named is T1, ErbB3-immunoadhesin (ErbB3-IgG fusion, L636 ErbB3-(TR)-DKTH224 VH) (human, UniProt P21860 20-643; P01857 104-330 = IgG part).
T1 construct: extracellular domain;domain: hinge domain of the immunoglobulin onward; Made in HEK-293 cells, purified on Protein A; also called ErbB3 immunoadhesins
Kind of assay: competitive displacement of ^125I-HRGβ1(177-244) (0.23 nM) from ErbB3-IgG captured on goat-anti-human antibody coated wells. How it is done: (§1) ¹²⁵I-HRG Binding Assay. Binding assays were performed in Nunc breakapart strip wells. Plates were coated at 4° C. overnight with 100 μl of 5 μg/ml goat-anti-human antibody (Boehringer Mannheim) in 50 mM carbonate buffer (pH 9.6). Plates were rinsed twice with wash buffer (PBS/0.05% Tween-20™) and blocked with 100 μl 1% BSA/PBS for 30 min. Buffer was removed and each well was incubated with 15 ng IgG fusion protein in 1% BSA/PBS under vigorous shaking for 1.5 hours. Plates were rinsed three times with wash buffer and competitive binding was carried out by adding various amounts of γ-HRG and ¹²⁵I-HRGβ1 under vigorous shaking. After incubation for 1.5–2 hours, wells were rinsed three times with wash buffer, drained and individual wells were counted using a 100 Series Iso Data γ-counter.
(§2) Bio/Technology 11:187–193 (1993)). Under those conditions trxγ-HRG accumulated in inclusion bodies from which the recombinant protein was isolated. Following purification, the protein was sulfitolyzed and then refolded by the addition of cysteine. The interaction of γ-HRG with the heregulin receptors ErbB3 and ErbB4 was examined. […] Cells were treated with various amounts of γ-HRG and tyrosine kinase activity was determined using immunoblotting with anti-phosphotyrosine antibody.

For assay [4], the target named is T2, ErbB4-immunoadhesin (ErbB4-IgG fusion, G640 ErbB4-(TR)-DKTH224 VH) (human, UniProt Q15303 26-651; P01857 104-330 = IgG part).
T2 construct: extracellular domain;domain: hinge domain of the immunoglobulin onward; also called H4-IgG; ErbB4 immunoadhesins
The assay can be described thus: competitive displacement of ^125I-HRGβ1(177-244) (0.23 nM) from ErbB4-IgG captured on goat-anti-human antibody coated wells. On the procedure: as §1, §2

For assay [5], the target named is ErbB receptor(s) on MCF7 cells. The assay can be described thus: cell-based or functional assay. The source holds these as a separate data set.

Read-outs that look alike come from different tables or passages of the source.

In general, EC50 refers to the concentration needed to bring the measured effect to its halfway point. Read a high EC50 as a less potent agent.

T2 sequence (Q15303 other isoform, or with tags, fused parts or gaps limits assumed): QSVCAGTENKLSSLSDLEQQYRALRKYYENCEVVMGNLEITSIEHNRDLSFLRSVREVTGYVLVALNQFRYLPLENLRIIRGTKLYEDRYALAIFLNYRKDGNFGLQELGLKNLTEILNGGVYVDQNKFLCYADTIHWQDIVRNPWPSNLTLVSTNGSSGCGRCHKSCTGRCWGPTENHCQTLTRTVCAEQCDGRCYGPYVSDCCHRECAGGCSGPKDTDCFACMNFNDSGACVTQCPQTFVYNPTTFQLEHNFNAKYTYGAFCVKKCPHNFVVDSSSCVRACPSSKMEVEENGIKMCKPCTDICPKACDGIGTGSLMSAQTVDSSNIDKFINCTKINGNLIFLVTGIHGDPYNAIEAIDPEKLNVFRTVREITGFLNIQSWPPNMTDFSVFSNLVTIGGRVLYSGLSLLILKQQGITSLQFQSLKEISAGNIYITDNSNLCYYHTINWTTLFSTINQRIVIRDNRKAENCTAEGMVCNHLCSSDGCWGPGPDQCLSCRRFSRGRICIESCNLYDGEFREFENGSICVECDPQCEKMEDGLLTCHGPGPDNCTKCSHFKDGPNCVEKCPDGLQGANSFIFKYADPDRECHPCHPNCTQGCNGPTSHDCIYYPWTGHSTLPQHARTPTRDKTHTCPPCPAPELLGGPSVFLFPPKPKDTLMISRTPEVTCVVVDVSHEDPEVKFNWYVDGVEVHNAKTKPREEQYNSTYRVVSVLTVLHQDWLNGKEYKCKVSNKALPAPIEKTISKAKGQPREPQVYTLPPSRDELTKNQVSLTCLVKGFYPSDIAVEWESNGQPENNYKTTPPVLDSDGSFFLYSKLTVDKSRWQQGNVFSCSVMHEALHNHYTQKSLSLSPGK
T1 sequence (P21860 other isoform, or with tags, fused parts or gaps limits assumed): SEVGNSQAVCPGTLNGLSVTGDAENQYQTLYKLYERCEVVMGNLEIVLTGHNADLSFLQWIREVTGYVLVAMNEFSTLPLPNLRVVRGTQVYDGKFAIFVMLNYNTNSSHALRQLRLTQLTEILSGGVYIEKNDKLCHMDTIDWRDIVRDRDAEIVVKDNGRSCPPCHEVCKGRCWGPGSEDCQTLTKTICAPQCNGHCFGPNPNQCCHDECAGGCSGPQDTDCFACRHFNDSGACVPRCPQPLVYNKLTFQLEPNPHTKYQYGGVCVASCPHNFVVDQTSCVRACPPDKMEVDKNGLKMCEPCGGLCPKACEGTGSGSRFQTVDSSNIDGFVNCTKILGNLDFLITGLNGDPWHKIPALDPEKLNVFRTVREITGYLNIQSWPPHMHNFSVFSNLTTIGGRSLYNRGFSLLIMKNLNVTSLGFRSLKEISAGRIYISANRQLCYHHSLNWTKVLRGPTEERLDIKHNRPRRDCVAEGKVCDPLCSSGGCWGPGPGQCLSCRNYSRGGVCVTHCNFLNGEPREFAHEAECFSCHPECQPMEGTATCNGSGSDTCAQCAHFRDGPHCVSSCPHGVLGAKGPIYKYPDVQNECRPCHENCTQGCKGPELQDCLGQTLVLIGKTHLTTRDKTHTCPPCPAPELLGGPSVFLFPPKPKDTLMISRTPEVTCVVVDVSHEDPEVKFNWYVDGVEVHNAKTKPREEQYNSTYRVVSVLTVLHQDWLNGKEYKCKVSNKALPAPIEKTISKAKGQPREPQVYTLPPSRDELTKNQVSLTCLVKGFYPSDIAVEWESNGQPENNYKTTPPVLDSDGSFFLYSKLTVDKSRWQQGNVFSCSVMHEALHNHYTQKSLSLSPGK

Molecule anti-ErbB2 monoclonal antibody 4D5 gave a growth inhibition of SK-BR-3 cells (crystal violet staining) in assay [1] of 66%.

In assay [2], “EGF-like domain of HRGβ1(177-244), expressed in E. coli (from UniProt Q02297 177-244) (ligand)” came in with an EC50 of tyrosine phosphorylation in MCF7 cells of 0.06 nM.

B1: trxγ-HRG (amino acids 455-768), N-terminal truncated γ-HRG thioredoxin fusion protein (ligand)
chain: QVFIDHPVHLKFNVSLGKAALVGIYGRKGLPPSHTQFDFVELLDGRRLLTQEARSLEGTPRQSRGTVPPSSHETGFIQYLDSGIWHLAFYNDGKESEVVSFLTTAIALPPRLKEMKSQESAAGSKLVLRCETSSEYSSLRFKWFKNGNELNRKNKPQNIKIQKKPGKSELRINKASLADSGEYMCKVISKLGNDSASANITIVESNEIITGMPASTEGAYVSSESPIRISVSTEGANTSSSTSTSTTGTSHLVKCAEKEKTFCVNGGECFMVKDLSNPSRYLCKCPNEFTGDRCQNYVMASFYSTSTPFLSLPE
notes: The results text calls it simply γ-HRG; also called recombinant γ-HRG; bacterial expressed truncated γ-HRG; not shown: N-terminal thioredoxin encoded by the pET-32a TRX fusion vector (Novagen); vector-encoded residues of pET32a between thioredoxin and the BamHI insertion site are not described
With B1, the EC50 in assay [3] turned out to be 19 nM; in assay [4] it was 13.3 nM. The same molecule showed an EC50 of tyrosine phosphorylation in MCF7 cells in assay [5] of 0.06 nM.
